The values that follow are results of earlier work, collected in PMC2996873.

One may read the Kd as a measure of binding affinity in units of concentration.

The target of this series is RANTES (Homo sapiens) (UniProt P13501).
Sequence of UniProt P13501 (P13501 27-91): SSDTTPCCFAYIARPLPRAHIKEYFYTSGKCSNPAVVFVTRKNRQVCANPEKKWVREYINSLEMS

For the substance CCR1 (from UniProt P32246), the Kd is 460 nM.
